± gives the half width of the 95% confidence interval.
What was measured:
[1] = folding stability dG unfold from chymotrypsin proteolysis; higher = more stable
Description: (§1)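 Folding stability of de novo designed mini-proteins (<80 aa, no Cys; designed by TrROS, TrMRF, ProteinMPNN and the joint model) was measured by cDNA display proteolysis with trypsin and chymotrypsin. Each protease was used at 11 concentrations in a threefold dilution series plus a no-protease condition. K50 was inferred by Bayesian fitting of sequencing counts, and dG unfold was derived against a sequence-predicted unfolded-state K50 (Tsuboyama et al. method). Sequences shown include variable-length N-terminal GS-type padding (SAGGSAGG...) inside a display construct carrying a PA tag. Rows were kept only if the AF2 dimer inter-PAE was >15, to exclude likely homo-oligomers.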

[2] = folding stability dG unfold (combined trypsin and chymotrypsin); higher = more stable
Description: as §1

SAGGSAGGSAGGAADAKVRLVLRTRTFDAVPGEERELPGDSWVYEVGDKAVALELLADPVSAGGSAGGSAGG [r7_506_TrMRF]
folding stability dG unfold [1]: 0.895 ± 0.058 kcal/mol | folding stability dG unfold [2]: 0.21 ± 0.083 kcal/mol

SKKRILIVTDEKDLSPEEAAKLLEELGIEEVKVVKSAEELKNLPPEVDEVIVVTPPPPVKVEFSPEELEKSA [r9_750_TrROS_Hall]
folding stability dG unfold [1]: -0.309 ± 0.069 kcal/mol | folding stability dG unfold [2]: -0.626 ± 0.43 kcal/mol

SAGGSAGGSAGGNKKKIELHFFFDPGQPAEEAKDFIRGAALENGDTITDVDIHWVPPEDFSAGGSAGGSAGG [r7_703_TrROS]
folding stability dG unfold [1]: 0.201 ± 0.11 kcal/mol | folding stability dG unfold [2]: -0.384 ± 0.3 kcal/mol

SAGGSSLPPDVTLVEEEKVVETPDGTTIKVKTTTAVSAEGTVRRPVTETITYPEKPETIEKETEIDASAGGS [r16_563_JUSTAS]
folding stability dG unfold [1]: 0.405 ± 0.15 kcal/mol | folding stability dG unfold [2]: 0.122 ± 0.33 kcal/mol

SAGMKIKVPFKAEVAPGAKPVKVEVWLGDGPPVATARLYYKVPGEEKTEVALIPIDPSTGKVTVFVKPGSAG [r5_136_TrMRF]
folding stability dG unfold [1]: 0.592 ± 0.26 kcal/mol | folding stability dG unfold [2]: 0.0709 ± 0.32 kcal/mol

SAEKVTLTITVKMTEEELKEIAEKVGMKVEITVEKEEDGLYRVTLTFETPEEAEKAREALEKAGYKVEPSAG [r14_745_TrROS_Hall]
folding stability dG unfold [1]: 4.57 ± 0.14 kcal/mol | folding stability dG unfold [2]: 4.6 ± 0.16 kcal/mol

SAGGSAGGSAGGPKVTVFDDHPKKVVLVEFPDKPILAVYDPVTKEVVLLNPDTDELLPLSAGGSAGGSAGGS [r10_434_TrMRF]
folding stability dG unfold [1]: -0.551 ± 0.22 kcal/mol | folding stability dG unfold [2]: -0.889 ± 0.47 kcal/mol

SAGGMMRTVTEPLSPEELEELRKEGWTVLGTEPGKVTVRVPVVPPLSPEEVAQARAAGLSEAEAAAARSAGG [r19_115_JUSTAS]
folding stability dG unfold [1]: 0.587 ± 0.14 kcal/mol | folding stability dG unfold [2]: 0.0214 ± 0.28 kcal/mol

SAGGSAGGSGSMSLSESPTSRTLTLTYPDSVVVTEYDPETGPPVTRFVSREDGVPVVYPAELLSAGGSAGGS [r12_632_JUSTAS]
folding stability dG unfold [1]: -0.0818 ± 0.1 kcal/mol | folding stability dG unfold [2]: -0.414 ± 0.09 kcal/mol

SAGGSAGGSAKNTASLKKDDGFVAYNPKTGKYVAEVEVVKDDKDNIDLPLPNGDEVEIDAVGSAGGSAGGSA [r18_363_TrMRF]
folding stability dG unfold [1]: -0.54 ± 0.42 kcal/mol | folding stability dG unfold [2]: -0.846 ± 0.44 kcal/mol

SAGGSAGGSMKLGGKPIKRVESEPLPGPSRLFYIELEDKKIPVVLEGDKLLVSPELFEWEKEGSAGGSAGGS [r20_92_TrMRF]
folding stability dG unfold [1]: 0.396 ± 0.22 kcal/mol | folding stability dG unfold [2]: -0.0157 ± 0.2 kcal/mol

SAGDKYRIKMTNPNGKKIEFEIPPNGYIKVRIRNPNNEHEMTIPIPPGETIEEALDNFPPYKISEIEPVSAG [r5_259_TrROS]
folding stability dG unfold [1]: 0.795 ± 0.1 kcal/mol | folding stability dG unfold [2]: 0.328 ± 0.082 kcal/mol

SAPDMQITDVEISEVEKNPDGKRTIEIWMRMDNYTYKATFPADKDGKIKKLSMERDPENNWMRHKIEIDSAG [r14_189_TrROS]
folding stability dG unfold [1]: 0.283 ± 0.34 kcal/mol

SAGGSAGGSMYYLIKTKPPDGKEEYIIDPLPPGGSIEDIIPEDLEIEEIKPFKSKEEAEKYLKSAGGSAGGS [r20_18_JUSTAS]
folding stability dG unfold [1]: 0.516 ± 0.46 kcal/mol

SADWLSVPFELLEEKPPPADKPLPEGSSAEVVVEDPLRPGEPIKLEVFYFPEKGILILRYEGKEIEIKVGSA [r9_243_JUSTAS]
folding stability dG unfold [1]: 0.673 ± 0.49 kcal/mol

SAGMTVEEAAKEAIEKIPPTTKEVEFEIDLGEKPLIVKIENIPDPETNKPIPKVIVEDPDEPKKVEFEISAG [r5_236_TrMRF]
folding stability dG unfold [1]: 0.104 ± 0.13 kcal/mol

SAGGSAGGSAGGPEPIPVKISMWNPNGKPMGTFEFPIETPEDLDEFAREDGMPFRVEPESAGGSAGGSAGGS [r10_958_TrROS]
folding stability dG unfold [2]: < -1 kcal/mol

SAGGSAGGSAGWFYRIEIPHPNGRKRTHYVPDPEEAEDELKEEFGIPPENVKIEPIPPNDSAGGSAGGSAGG [r17_169_TrROS]
folding stability dG unfold [2]: < -1 kcal/mol

SAGGSAGGSAGLEIPPELTVTSTFTVPPSGRRVLELLNPATNEPVVLDLETGEIHPSEALSAGGSAGGSAGG [r11_268_JUSTAS]
folding stability dG unfold [2]: < -1 kcal/mol

SAGGSAGGSMKKLLVERKPDGTVTVVDVLPADRSAEELPPEELTSFTLLPFESLEEALKKAAASAGGSAGGS [r12_452_JUSTAS]
folding stability dG unfold [2]: < -1 kcal/mol

SAGGMTLESEVTTLPDGTVVTKTTTVYPDGTVTTKTTTTSVPAGPPTVVRTLPDGSRVRDPTGEWTALSAGG [r13_151_JUSTAS]
folding stability dG unfold [2]: < -1 kcal/mol

SAGGSARKITIDVQPHPNGEFPINVKIRGPNGEPKKERPFNFDSPQAAKNKLKDFADKNGYEVEIWSAGGSA [r15_242_TrROS]
folding stability dG unfold [2]: < -1 kcal/mol

SAGGSAGGSAGGKVIHIPAGDAKTFIKEALEKDKDQPIVIHMYNPDGKEYSTMEVKIKPSAGGSAGGSAGGS [r10_741_TrROS]
folding stability dG unfold [2]: < -1 kcal/mol

SAGGSAGGPKPEIDIEPYPEEGQMYVKIRLPGNGRPITIPVEGPMTPNDPEKAIEEAKDALEKFSAGGSAGG [r6_331_TrROS]
folding stability dG unfold [2]: < -1 kcal/mol

SAGGSAGGSAKTYIIPIKDLGPDENGKYHIDIAVEKVKKLFPDENITSVDIDGFEKIGELAESAGGSAGGSA [r18_72_TrMRF]
folding stability dG unfold [2]: < -1 kcal/mol

SAGGSAGGAVRVDDSEIGPDRAAPLPGNRSLEVRPDSVTVTTTDPSTNTPTTTTLPYSEVERLLSAGGSAGG [r6_942_JUSTAS]
folding stability dG unfold [2]: < -1 kcal/mol

SAGGSAGGSAGGWLKGMPFKITKITDVRRNPENGRRWLTIRMPNPNRPVTVPLDDLPPGLSAGGSAGGSAGG [r7_304_TrROS]
folding stability dG unfold [2]: < -1 kcal/mol

SAGGIKPGQQWRIRSPNGPIPIRVRGGQIKIRNNDNGKKRTYPVPGDTIEEIVDDLRDHPGMEIEPLSAGGS [r16_583_TrROS]
folding stability dG unfold [2]: < -1 kcal/mol

SAGGSAGGSAGMTPEEAEKEAAEKIKNELIAKGYPEAKVEVKSPVKVDEVNNTFTLDIDIKKSAGGSAGGSA [r18_517_JUSTAS]
folding stability dG unfold [2]: < -1 kcal/mol

SAGGSAGGSAGGSSKLVTITRGNSKTLLTLKPDEPVLLPGSDSSVSVNEGSAVNISGNKLSAGGSAGGSAGG [r7_853_JUSTAS]
folding stability dG unfold [2]: < -1 kcal/mol

SAGGSAGGSAGGIRLSPEFRELLKDAPPSPGQKREINFPNGYQITYTVKGNKIDDIEWTPSAGGSAGGSAGG [r7_611_TrROS]
folding stability dG unfold [2]: < -1 kcal/mol

SAGGSAGGSKIKIEDIHPNPNGMFMFRIRPPDNGKPREVPFDSPEDAERFADELEEDGYKIEISAGGSAGGS [r20_177_TrROS]
folding stability dG unfold [2]: < -1 kcal/mol

SAGGSAGGSAGGMKVETRTITDPGGIEKVKEDYPGYTVEKTEKLPDGSTKVTLKYPILKSAGGSAGGSAGGS [r10_764_JUSTAS]
folding stability dG unfold [2]: < -1 kcal/mol

SAGGSAGGSEKYRVRFPDGQPLPFPNGKSHPMKPGEEMEIESPEDKDRLKDHFPGFPVEVEPLSAGGSAGGS [r12_987_TrROS]
folding stability dG unfold [2]: < -1 kcal/mol

SAGGTVEELLRRVPFVEEAVVDVDSGVAYVRVPDRYYVVRVPLVAEPDEDGVLRPRTPVEVEPFAPESAGGS [r16_65_TrMRF]
folding stability dG unfold [2]: < -1 kcal/mol

SAGGSAGGMEAVLEALKELPPDEEKVITVPHPDDPRYVVRFTLRRKGDEIEIPVEKKPIPPGLASAGGSAGG [r6_392_TrMRF]
folding stability dG unfold [2]: < -1 kcal/mol

SAGGSAGGSAGGMVLELEGLGEEEIKALVREIPEDEPVTFVIKSKNNKTSVIPSEEILESAGGSAGGSAGGS [r10_732_JUSTAS]
folding stability dG unfold [2]: < -1 kcal/mol

SAALGPEKAEELAEALARELAEKAGVEKVEAKVEPLPDERWVAEIYFPPVGKKARVVFEKDKPRLVEVGSAG [r14_925_TrMRF]
folding stability dG unfold [2]: < -1 kcal/mol

SAGGSAEPKPGVKAILFNENGEPIKEVSENEEILLPNGTPTKVYRLPDNSSIATHPDGYVALFVEGSAGGSA [r15_845_TrMRF]
folding stability dG unfold [2]: < -1 kcal/mol

SAGGSAGGSAEEILELFPDLELLEVDPVEPRALVRRSDDSWLRVNLATGEAEEVGPGEAERESAGGSAGGSA [r18_381_TrMRF]
folding stability dG unfold [2]: < -1 kcal/mol

SAGGSAGGSAGGDKKAIEELVKKLPPDTKLAPVKLPDGKEKLIFVERREDGSRKALVLDSAGGSAGGSAGGS [r10_1017_TrMRF]
folding stability dG unfold [2]: < -1 kcal/mol

— the supplement of paper PMC12764529
